Values of other authors in PMC9499636.
pKd: −log10 of the molar value. One block for each substance: values may come before it.

Key:
Ship2 Sam (Homo sapiens) [1] = molecular target: Ship2 Sam (Homo sapiens) (UniProt O15357); test: SPR
Ship2 Sam (Homo sapiens) [2] = molecular target: Ship2 Sam (Homo sapiens) (UniProt O15357); test: ITC
EphA2 Sam (Homo sapiens) [3] = molecular target: EphA2 Sam (Homo sapiens) (UniProt P29317); test: SPR
EphA2 Sam (Homo sapiens) [4] = molecular target: EphA2 Sam (Homo sapiens) (UniProt P29317); test: ITC
[5] = molecular target: EphA2-Sam Sam (Homo sapiens) (UniProt P29317); test: SPR

Chain of UniProt O15357 (O15357 1193-1258): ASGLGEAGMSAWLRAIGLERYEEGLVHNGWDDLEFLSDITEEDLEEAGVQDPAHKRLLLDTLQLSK

pKd (Ship2 Sam (Homo sapiens) [1]): 5.66
pKd (Ship2 Sam (Homo sapiens) [2]): 6.12
Substance: EphA2 Sam (from UniProt P29317)

pKd (EphA2 Sam (Homo sapiens) [3]): 5.26
pKd (EphA2 Sam (Homo sapiens) [4]): 6.21
Substance: Odin Sam1 (from UniProt Q92625)

pKd [5]: 3.65
Substance: Pep2 (from UniProt Q92625)

pKd [5]: 3.28
Substance: Pep3 (from UniProt Q92625)
